Data: the Immune Epitope Database (IEDB)

Target: HLA-B*07:02
Assay: IEDB peptide-MHC binding, purified MHC/competitive/fluorescence; ≥ and ≤ were set here for values at or beyond the usual limits of such assays

Sequence: LPFDRPTIM
- IC50 (source organism: H1N1 subtype): 7.91 µM

Sequence: LPFDKTTIM
- IC50 (source organism: H1N1 subtype Influenza A/Oklahoma/7485/01): 0.192 µM

Sequence: LPFDKPTIM
- IC50 (source organism: H3N2 subtype): 0.335 µM

Sequence: LPFERSTVM
- IC50 (source organism: H3N2 subtype): ≥ 149 µM

Sequence: LPFEKTTIM
- IC50 (source organism: H1N1 subtype): 1.19 µM

Sequence: LPFEKSIVM
- IC50 (source organism: H3N2 subtype): 0.494 µM

Sequence: LPFERATII
- IC50 (source organism: H3N2 subtype): 1.18 µM

Sequence: LPFDKITIM
- IC50 (source organism: H1N1 subtype): 4.81 µM

Sequence: LPFGKTTIM
- IC50 (source organism: H1N1 subtype): 0.881 µM

Sequence: LPFDKQTIM
- IC50 (source organism: H3N2 subtype): 46.5 µM
